Laboratory results reported in US20130216547A1 (Regeneron, published 2013).
Substitutions are numbered along the chain they refer to. In names and notes the source's numbering stands.

B1: H4H6329P (antibody, V domains shown)
VH: QVQLVESGGGVVQPGRSLRLSCAASGFTFGSYGMHWVRQAPGKGLEWVAVIWYDGSDEYYTDSVKGRFTVSRDNSKYTLYLQMNSLRADDTAVYYCARDGYRTRGNYFDYWGQGTLVTVSS
VL: DVVMTQSPLSLPVALGQPASISCRSSQSLVYSDGNTYLNWFQQRPGQSPRRLIYKVSNRDSGVPDRFGGSGSGTDFTLKISRVEAEDVGLYYCMQGTHWPPTFGGGTKVEIK
notes: Human IgG4 Fc (prefix H4H)
B2: H4H6353P (antibody, V domains shown)
VH: EVQLVESGGGLVKPGGSLRLSCAASGFSFNYAWMSWVRQAPGKGLEWIGRIKSKINGGTTDYTAPVKGRFTISRDDSKNTLYLQMNSLKTEDTAVYYCRGDEDFWGQGTLVTVSS
VL: B1 VL with A14T, N35F, Q42R, G68S, K79R, L90I, P101Y, G105Q, V109L
notes: Human IgG4 Fc (prefix H4H)
B3: H2M6490N (antibody, V domains shown)
VH: EVQLLESGGGLVQPGGSLRLSCAASGFTFSSYAMTWVRQAPGKGLECISAISGSGYSTYYADSMKGRFSISRDNSKNTLYLQMNRLRAEDTAVYYCTKGGRILEWLLPFDFWGQGTLVTVSS
VL: B1 VL with A14T, N39I, G68S, K79I
notes: Hybridoma antibody, human variable domains, mouse IgG2 Fc (prefix H2M)
B4: H4H6334P2 (antibody, V domains shown)
VH: EVQLVESGGGLVKPGGSLRLSCAVSGFTFSIDWMIWVRQAPGTGLEWVGRIKRKTDGGTTDYAAPVKGRFTISRDDSKNTLYLQMNSLKTEDTAIYYCATGGFERWGQGTLVTVSS
VL: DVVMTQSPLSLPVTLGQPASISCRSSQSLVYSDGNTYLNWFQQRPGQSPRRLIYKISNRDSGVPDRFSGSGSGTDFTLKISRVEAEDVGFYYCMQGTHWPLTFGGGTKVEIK
notes: Human IgG4 Fc (prefix H4H)
B5: H4H6316P (antibody, V domains shown)
VH: QVQLVESGGGVVQPGRSLRLSCEASGFTFSSYGMHWVRQAPGKGLEWVAVFWYDGSNKYYADSVKGRFTISRDNSKNTLYLQMNSLTAEDTAIYYCARAYDAFDIWGQGTMVTVSS
VL: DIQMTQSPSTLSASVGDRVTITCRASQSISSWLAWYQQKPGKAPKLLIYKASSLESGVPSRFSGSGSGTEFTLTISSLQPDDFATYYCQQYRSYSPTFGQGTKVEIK
notes: Human IgG4 Fc (prefix H4H)
B6: H4H6317P (antibody, V domains shown)
VH: B5 VH with E23A, F51L, S56R, T87R, I93V, A99S
VL: DIQMTQSPSTLSASVGDRVTITCRASQSISSWLAWFQQGPGRAPKLLIYKASTLQSGVPSRFSGSGSGTEFTLTISSLQPDDFATYYCQQYRSYSPTFGQGTKVEIK
notes: Human IgG4 Fc (prefix H4H)
B7: H4H6311P (antibody, V domains shown)
VH: B5 VH with E23A, S31T, Y53F, L79I, T87R
VL: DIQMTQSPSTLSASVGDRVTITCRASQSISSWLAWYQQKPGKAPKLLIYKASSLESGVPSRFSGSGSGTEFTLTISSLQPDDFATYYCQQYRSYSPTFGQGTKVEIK
notes: Human IgG4 Fc (prefix H4H)
B8: H4H6330P (antibody, V domains shown)
VH: EVQLVESGGGLVQPGGSLRLSCAASGFTFSNYAMSWVRQAPGKGLEWVSAVSGSGVGTYYADSVKGRFTISRDNSKNTLYLQMKSLSAEDTALYYCTKTLGGTHAFDIWGQGTMVTVSS
VL: DIQMTQSPSTLSASVGDRVTITCRASQSISRWLAWYQQKPGKAPKLLIYKASSLESGVPSRFSGSGSGTEFTVTINSLQPDDFATYYCQQYNSYSSFGQGTKLEIK
notes: Human IgG4 Fc (prefix H4H)
B9: H4H6332P (antibody, V domains shown)
VH: B8 VH with G9E, T28I, N31S, V51I, K84N, S87R, L93V, Y95F, T97A, G101S
VL: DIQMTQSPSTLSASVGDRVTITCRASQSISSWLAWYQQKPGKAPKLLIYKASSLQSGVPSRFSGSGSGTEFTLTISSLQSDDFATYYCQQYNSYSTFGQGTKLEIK
notes: Human IgG4 Fc (prefix H4H)
B10: H4H6492N2 (antibody, V domains shown)
VH: EVQLVESGGGLVKPGGSLRVSCVASGFTFSNAWMTWVRQTPGKGLEWVGRIKSRTDGGTVDYVAPVKGRFTISRDDSKNTLYLQMNSLKAEDTAVYYCRADLDYWGQGTLVTVSS
VL: DVVMTQSPLSLPVSLGQPASISCRSSQSLVHSDGITYLNWFQQRPGQSPRRLIYKISNRDSGVPDRFSGSGSGTDFTLKFSRVEAEDVGVYFCMQGTHWPYTFGQGTKLEIK
notes: Human IgG4 Fc (prefix H4H)
B11: H4H6323P (antibody, V domains shown)
VH: QITLKESGPPLVKPTQTLTLTCTFSGFSLNTNGMGVGWIRQPPGKALEWLTLIYWNDDKRYSPSLKTRLTITKDTSKNQVVLTMTNMDPVDTATYYCARFGSGTYWGQGTLVTVSS
VL: DIVMTQSPLSLPVTPGEPASISCRSSQSLLHSYGYNFLDWFLQKPGQSPQLLIYLGSHRASGVPDRFSGSGSGTDFTLKISRVEAEDVGVYYCMQALQTPLTFGGGTKVEIK
notes: Human IgG4 Fc (prefix H4H)
B12: H4H6338P (antibody, V domains shown)
VH: EVQLVESGGGLVQPGGSLRLSCAASGFAFSSYAMTWVRQTPGKGLEWVSSISGSGGSTYYADSVKGRFTISRDNSKNTLYLQMNSLRAEDTAVYYCAKARTGTHAFDIWGQGTMVTVSS
VL: not shown
notes: Human IgG4 Fc (prefix H4H)
B13: H4H6340P (antibody, V domains shown)
VH: EVQLVESGGGLVQPGGSLRLSCAASGFTFSSSAMSWVRQAPGKGLEWVSAISGSGVGTYYAASVKGRFTISRDNSKNILYLQMNDLRAEDTALYYCPKARTGTHAFDIWGQGTMVTVSS
VL: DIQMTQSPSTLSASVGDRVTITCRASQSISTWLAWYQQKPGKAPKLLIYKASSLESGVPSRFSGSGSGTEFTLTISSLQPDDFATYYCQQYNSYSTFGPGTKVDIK
notes: Human IgG4 Fc (prefix H4H)
B14: H4H6347P (antibody, V domains shown)
VH: B13 VH with S31N, S32Y, I78T, D85S, L93V
VL: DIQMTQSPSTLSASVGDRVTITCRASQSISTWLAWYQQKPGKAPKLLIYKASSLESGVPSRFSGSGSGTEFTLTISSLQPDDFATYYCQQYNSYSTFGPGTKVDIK
notes: Human IgG4 Fc (prefix H4H)
B15: H4H6343P (antibody, V domains shown)
VH: B13 VH with V5L, S32Y, A62D, I78T, D85S, L93V
VL: not shown
notes: Human IgG4 Fc (prefix H4H)
B16: H4H6345P (antibody, V domains shown)
VH: B12 VH with A28I, T40A, S50A, G56V, A88I, A97G
VL: B8 VL with S56T, V73L, N76S, A84G, Q99P, L103V, E104D
notes: Human IgG4 Fc (prefix H4H)

What was measured:
[1] = target: T1, small-ET-1 (endothelin-1) (human); assay: SPR (Biacore T200), 37 C, mAb capture, peptide analyte
T1 construct: 21 amino acid peptide, same for mouse and human; also called human small-ET-1; EDN-1
T1 peptide: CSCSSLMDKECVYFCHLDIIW
Protocol: (§1) Measurements were conducted on a T200 Biacore instrument (Biacore Life Sciences division of GE Healthcare, Piscataway, N.J.). […] Peptide binding was monitored for 3 min while dissociation of mAb-bound peptide was monitored for 4 min in HBST running buffer (0.01 M HEPES pH 7.4, 0.15 M NaCl, 3 mM EDTA, 0.005% v/v Surfactant P20). Kinetic association (kₐ) and dissociation (kd) rate constants were determined by processing and fitting the data to a 1:1 binding model using Scrubber 2.0 curve fitting software.

[2] = target: T2, human big-endothelin-1 (big-ET-1) (human); assay: as above
T2 construct: 38 amino acid peptide; also called human big-ET-1; hBig-ET-1
T2 peptide: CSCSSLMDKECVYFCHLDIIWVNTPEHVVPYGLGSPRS
Protocol: as §1

mouse big-ET-1 [3] = target: T3, mouse big-ET-1 (mouse); assay: as above
T3 construct: also called mBig-ET-1
T3 peptide: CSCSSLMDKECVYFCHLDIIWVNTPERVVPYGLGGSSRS
Protocol: as §1

[4] = target: T2, human big-endothelin-1 (big-ET-1); assay: cell-based or functional assay
mouse big-ET-1 [5] = target: T3, mouse big-ET-1; assay: cell-based or functional assay
[6] = target: T2, human big-endothelin-1 (big-ET-1); assay: cell-based or functional assay

Binder	binding result [1]	Kd [2]	T½ [2]	koff [2]	kon [2]	Kd (mouse big-ET-1 [3])	T½ (mouse big-ET-1 [3])	koff (mouse big-ET-1 [3])	kon (mouse big-ET-1 [3])	Blocking IC50(M), 10 nM hBig-ET-1 + 3 nM hECE1; 293/ETaR/NFAT-Luc luciferase [4]	Blocking IC50(M), 20 nM mBig-ET-1 + 5 nM mECE1; 293/ETaR/NFAT-Luc luciferase (mouse big-ET-1 [5])	Blocking IC50(M), 10 nM hBig-ET-1 + 3 nM hECE1 [Trial 1]; 293/ETaR/NFAT-Luc luciferase [6]
B1	no binding	0.297 nM	3900 s	0.000176 s⁻¹	595000 M⁻¹ s⁻¹	19 nM	3120 s	0.000223 s⁻¹	11600 M⁻¹ s⁻¹	3.3e-09 M	> 1e-07 M	–
B2	no binding	1.02 nM	600 s	0.00116 s⁻¹	1.14e+06 M⁻¹ s⁻¹	800 nM	300 s	0.00236 s⁻¹	2900 M⁻¹ s⁻¹	1.8e-09 M	> 1e-07 M	–
B3	no binding	19.1 nM	180 s	0.00399 s⁻¹	209000 M⁻¹ s⁻¹	–	–	–	–	–	–	1.9e-09 M
B4	no binding	225 nM	18 s	0.0349 s⁻¹	155000 M⁻¹ s⁻¹	–	–	–	–	–	–	–
B5	no binding	14.8 nM	1620 s	0.000428 s⁻¹	28800 M⁻¹ s⁻¹	–	–	–	–	–	> 1e-07 M	–
B6	no binding	5.42 nM	3480 s	0.000199 s⁻¹	36700 M⁻¹ s⁻¹	–	–	–	–	–	> 1e-07 M	–
B7	no binding	15.2 nM	2400 s	0.000292 s⁻¹	19200 M⁻¹ s⁻¹	–	–	–	–	–	–	–
B8	no binding	22.9 nM	24 s	0.0324 s⁻¹	1.42e+06 M⁻¹ s⁻¹	50 nM	12 s	0.072 s⁻¹	1.5e+06 M⁻¹ s⁻¹	1.7e-09 M	1.6e-09 M	–
B9	no binding	29.5 nM	18 s	0.0429 s⁻¹	1.45e+06 M⁻¹ s⁻¹	100 nM	6 s	0.196 s⁻¹	2e+06 M⁻¹ s⁻¹	3.1e-09 M	1.2e-09 M	–
B10	no binding	70 nM	24 s	0.0297 s⁻¹	424000 M⁻¹ s⁻¹	–	–	–	–	4.17e-08 M	–	–
B11	no binding	10.1 nM	120 s	0.00569 s⁻¹	565000 M⁻¹ s⁻¹	32.9 nM	36 s	0.0192 s⁻¹	580000 M⁻¹ s⁻¹	7.6e-09 M	4e-09 M	–
B12	no binding	–	6 s	0.12 s⁻¹	454000 M⁻¹ s⁻¹	–	0.6 s	0.885 s⁻¹	190000 M⁻¹ s⁻¹	–	–	–
B13	no binding	11 nM	30 s	0.0249 s⁻¹	2.3e+06 M⁻¹ s⁻¹	47 nM	12 s	0.0603 s⁻¹	1.3e+06 M⁻¹ s⁻¹	2.1e-09 M	1.5e-09 M	–
B14	no binding	13.2 nM	30 s	0.0239 s⁻¹	1.81e+06 M⁻¹ s⁻¹	13 nM	18 s	0.0414 s⁻¹	3.1e+06 M⁻¹ s⁻¹	1.5e-09 M	1e-09 M	–
B15	no binding	–	36 s	0.018 s⁻¹	1.61e+06 M⁻¹ s⁻¹	–	18 s	0.0453 s⁻¹	1.8e+06 M⁻¹ s⁻¹	–	–	–
B16	no binding	87.4 nM	12 s	0.058 s⁻¹	663000 M⁻¹ s⁻¹	65 nM	6 s	0.0974 s⁻¹	1.5e+06 M⁻¹ s⁻¹	–	–	–
